{
  "source": "paper PMC11237755",
  "target": "T1, TtdV-His6;TtdW-His6 (Salmonella enterica serovar Typhimurium IR715 (ATCC14028 NalR);Salmonella enterica serovar Typhimurium IR715 (ATCC14028 NalR)) (UniProt Q8ZLP8+Q8ZLP7)",
  "T1 sequence 1": "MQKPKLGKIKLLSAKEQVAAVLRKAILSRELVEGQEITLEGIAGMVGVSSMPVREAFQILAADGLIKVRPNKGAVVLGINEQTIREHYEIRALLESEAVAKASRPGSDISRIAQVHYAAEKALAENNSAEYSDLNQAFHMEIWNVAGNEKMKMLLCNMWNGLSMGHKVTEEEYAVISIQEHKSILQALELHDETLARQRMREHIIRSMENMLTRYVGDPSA",
  "T1 sequence 2": "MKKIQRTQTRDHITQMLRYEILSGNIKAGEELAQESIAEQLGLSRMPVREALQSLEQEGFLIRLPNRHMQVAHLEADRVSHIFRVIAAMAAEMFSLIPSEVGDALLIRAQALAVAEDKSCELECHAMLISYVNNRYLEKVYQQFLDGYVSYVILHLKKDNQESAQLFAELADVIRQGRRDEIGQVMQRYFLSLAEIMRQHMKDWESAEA",
  "experiment": "EMSA",
  "conditions": "LightShift Chemiluminescent EMSA kit (binding buffer, salt and pH not given), 20 min room temperature; 20 fmol probe, 6% 0.5x TBE gel (TtdV/TtdW); 50 fmol …",
  "data": [
    {"sequence": "CGTATGCTGACCCGCTATGTTGGTGACCCTTCTGCCTGATCTTTTCGCCTGCGTGAGCATCGCAGGCGCTTCAACCAATTCTTCAATTCTATTAATCACGTCCAGTAACGATCTAACCACGATCTTGATGTAGATCCCACTCCTGCATCTTTCCTGAGAAACGATTTGACTTAGTTTTTGTATGGGAATAATTTCTCCCTGTCAACATTGGATACAATATCATATATCATTGATTGGATAATTATAAATATGGAACCCATTACCCTTACCTTATGTTTATTGGTGTTCGCCC (double strand) [Probe 4]", "values": [
      {"measurement": "binding", "value": "binds"}
    ]}
  ]
}
